The target of test [1] is recombinant human TGF-β 1 protein (Cat: CA59, Novoprotein Scientific Inc.) (human) (UniProt P01137). Nature of the test: BLI (Octet QKe), binder captured on AHC biosensor, 1:1 fit. On the technique in general: Biolayer interferometry detects binding as a change in optical thickness at a sensor tip.
Test [2] shares this target. Nature of the test: ELISA, target coated at 1 µg/ml, HRP-anti-human Fc detection.
The target of test [3] is T1, human TGF-β 3 (Cat: CJ44, Novoprotein Scientific Inc.) (human) (UniProt P10600).
T1 sequence (looked up): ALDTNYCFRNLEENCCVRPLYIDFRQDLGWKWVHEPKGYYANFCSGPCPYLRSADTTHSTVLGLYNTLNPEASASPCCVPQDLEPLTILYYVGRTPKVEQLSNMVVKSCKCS
The description is as above.

In test [4] the target is T2, human TGF-β 2 (Cat: CJ79, Novoprotein Scientific Inc.) (human) (UniProt P61812).
T2 sequence (looked up): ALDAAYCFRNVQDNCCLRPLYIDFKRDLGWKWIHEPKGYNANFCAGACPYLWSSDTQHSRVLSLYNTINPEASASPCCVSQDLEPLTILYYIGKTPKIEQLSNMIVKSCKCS
The description is as above.

Test [5] deals with T3, recombinant human PD-L1-his protein (Accession No.: NP_054862.1, 19 aa-238 aa) (human, UniProt Q9NZQ7 19-238).
T3 construct: range 19-238; also called recombinant human PD-L1 extracellular domain protein; not shown: his tag
T3 sequence (Q9NZQ7 19-238 limits assumed): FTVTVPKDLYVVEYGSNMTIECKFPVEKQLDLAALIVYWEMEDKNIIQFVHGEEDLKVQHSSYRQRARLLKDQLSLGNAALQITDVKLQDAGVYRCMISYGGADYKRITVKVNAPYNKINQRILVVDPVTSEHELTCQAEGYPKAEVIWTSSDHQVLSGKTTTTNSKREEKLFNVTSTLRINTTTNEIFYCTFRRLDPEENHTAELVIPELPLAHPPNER
The test is described as follows: BLI (Octet QKe), binder captured on AHC biosensor, analyte 60 nM, 1:1 fit. The text has this: Antibody affinity was detected by an assay including capturing antibody Fc fragment with anti-human IgG Fc capture (AHC) biosensors on Octet QKe system instrument from Fortebio. […] The binding time was 300 s and the dissociation time was 300 s.

Sequence of recombinant human TGF-β 1 protein (Cat: CA59, Novoprotein Scientific Inc.) (human) (P01137 279-390 limits assumed): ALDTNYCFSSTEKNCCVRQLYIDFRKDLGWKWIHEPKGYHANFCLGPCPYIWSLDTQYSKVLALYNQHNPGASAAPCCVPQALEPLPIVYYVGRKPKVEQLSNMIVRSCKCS

For the molecule “recombinant protein M7824 (anti-human PD-L1 antibody/TGF-β RII fusion protein control)”, the Kd in test [1] is 2.81 nM. For the same molecule, the EC50 in test [2] stood at 0.472 nM; in test [3], 0.981 nM; in test [4], 18.2 nM.

B1: PD-L1 antibody H182-MUT4 (antibody, human IgG1, kappa, V domains shown)
VH: EVQLVQSGAEVKKPGATVKISCKVSGFNIKDIYMHWVQQAPGKGLEWMGRIDPANANTKYDPKFQDRVTITADTSTNTAYMELSSLRSEDTAVYYCASGQLGPLGFDYWGQGTTVTVSS
VL: DIQMTQSPSSLSASVGDRVTITCRASQDISNYLNWYQQKPGKAPKLLLYYTSRLHSGVPSRFSGSGSGTDYTLTISSLQPEDFATYFCQQGAGRPYTFGGGTKVEIKR
notes: 25-30 for the anti-human PD-L1 antibody without naming H182-MUT4; also called MW22
Turning to B1, the Kd in test [5] worked out at 0.433 nM.

What is called Kd is the equilibrium constant for the complex coming apart. A word on the EC50: it is the concentration giving half of the maximal effect.

(Values after patent US20230365653A1 (MABWELL SHANGHAI BIOSCIENCE, published 2023).)
